These results are taken from EP1644415B1 (Genetics Institute, LLC, dated 2010).

The labels stand for the following.
T1: human IL-22R-Fc/IL-10R2-Fc heterodimer (human, UniProt Q8N6P7 16-228; Q08334 20-220)
T1 construct: extracellular domain; Used as conditioned medium of CHO cells co-expressing both fusions; also called IL-22R/IL-10R2-Fc heterodimer; IL-22R-Fc/IL-10R2-Fc complex; not shown: human IgG1 Fc
T1 sequence 1: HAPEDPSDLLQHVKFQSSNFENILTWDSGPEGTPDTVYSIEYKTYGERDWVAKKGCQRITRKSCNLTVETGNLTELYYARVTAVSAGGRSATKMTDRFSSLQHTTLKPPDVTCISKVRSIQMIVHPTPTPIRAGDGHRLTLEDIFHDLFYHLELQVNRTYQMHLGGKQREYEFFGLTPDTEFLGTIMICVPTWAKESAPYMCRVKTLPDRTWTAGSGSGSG
T1 sequence 2: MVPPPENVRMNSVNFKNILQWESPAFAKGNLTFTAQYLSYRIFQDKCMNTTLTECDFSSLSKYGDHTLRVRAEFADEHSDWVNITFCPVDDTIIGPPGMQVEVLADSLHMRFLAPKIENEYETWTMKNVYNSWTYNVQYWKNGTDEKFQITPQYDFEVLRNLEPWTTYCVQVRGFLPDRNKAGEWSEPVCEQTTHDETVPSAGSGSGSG

B1: human IL-22R extracellular domain-Fc fusion homodimer (Fc fusion)
chain: T1 sequence 1
notes: extracellular domain; Used as CHO conditioned medium, not purified; also called IL-22R-Fc; IL-22RECD-Fc; not shown: human IgG1 Fc
B2: human IL-22 with N terminal His/Flag tag (ligand)
chain: GSGHHHHHHGSGDYKDDDDKAPISSHCRLDKSNFQQPYITNRTFMLAKEASLADNNTDVRLIGEKLFHGVSMSERCYLMKQVLNFTLEEVLFPQSDRFQPYMQEVVPFLARLSNRLSTCHIEGDDLHIQRNVQKLKDTVKKLGESGEIKAIGELDLLFMSLRNACI
modifications: biotinylated with EZ-Link Sulfo-NHS-Biotin where used in ELISA (bio-IL-22); not biotinylated in Biacore and cell assays
notes: Made in CHO cells, extensively glycosylated; also called hIL-22; huIL-22
B3: human IL-22 binding protein-Fc fusion (Fc fusion)
chain: TQSTHESLKPQRVQFQSRNFHNILQWQPGRALTGNSSVYFVQYKIYGQRQWKNKEDCWGTQELSCDLTSETSDIQEPYYGRVRAASAGSYSEWSMTPRFTPWWETKIDPPVMNITQVNGSLLVILHAPNLPYRYQKEKNVSIEDYYELLYRVFIINNSLEKEQKVYEGAHRAVEIEALTPHSSYCVVAEIYQPMLDRRSQRSEERCVEIPAGSGSGSG
notes: Fc fusion homodimer, used as CHO conditioned medium; also called IL-22BP-Fc; hIL-22BP-Fc; not shown: human IgG1 Fc
B4: human IL-10R2 extracellular domain-Fc fusion homodimer (Fc fusion)
chain: T1 sequence 2
notes: extracellular domain; Used as CHO conditioned medium, not purified; also called IL-10R2-Fc; IL-10R2ECD-Fc; not shown: human IgG1 Fc

Experiment [1] addresses B2. Briefly: ELISA, bio-IL-22 on streptavidin plates, IL-22R-Fc titrated (Figure 6B).
For experiment [2], the target named is T1, human IL-22R-Fc/IL-10R2-Fc heterodimer. Briefly: ELISA, 50 ng/ml total Fc of co-expressing CHO CM captured, bio-IL-22 5 ng/ml, no antibody (Figure 10C).
Experiment [3] deals with B1. Briefly: ELISA, IL-22R-Fc captured on anti-human IgG, bio-IL-22 titrated (Figure 6A).
The target in experiment [4] is T1, human IL-22R-Fc/IL-10R2-Fc heterodimer. Put plainly: Biacore, receptor-Fc from conditioned medium captured by anti-human IgG, IL-22 injected, 1:1 model.
Experiment [5] has as its target B1. The experiment is described as above.
Experiment [6] concerns the target B3. Briefly: Biacore, IL-22BP-Fc from conditioned medium captured by anti-human IgG, IL-22 injected, 1:1 model.
Experiment [7] concerns the target T1, human IL-22R-Fc/IL-10R2-Fc heterodimer. Put plainly: ELISA, 50 ng/ml total Fc captured on anti-human IgG, bio-IL-22 titrated (Figure 8A).
Experiment [8] concerns the target B2. Briefly: competition ELISA: IL-22BP-Fc pre-incubated with bio-IL-22 30 ng/ml, binding to captured IL-22R-Fc (Figure 11A).
For experiment [9], the target named is B2. Briefly: competition ELISA: IL-22BP-Fc pre-incubated with bio-IL-22 5 ng/ml, binding to captured IL-22R/IL-10R2-Fc heterodimer (Figure 11B).
Experiment [10] deals with B1. Put plainly: ELISA, IL-10R2-Fc added to captured IL-22R-Fc before bio-IL-22 (Figure 9A).

As for B1, the EC50 in experiment [1] was 0.006 µg/mL.

B2 returned an ELISA signal (absorbance at 450 nm) in [2] of 2.5. A half-maximal response in experiment [3] (EC50) required 0.02 µg/mL. In addition, the dissociation constant Kd in [4] is 1.48 nM; in experiment [5] it was 41 nM; in experiment [6] it was 3.37 nM. In [7], the fold less bio-IL-22 needed for a comparable signal than with immobilized IL-22R-Fc homodimer was 8 fold.

As to B3, the half-maximal inhibitory concentration (IC50) in experiment [8] was 4 nM; in experiment [9], 2 nM.

With B4, the binding result in experiment [10] is “no binding”.
